Tests used:
human Claudin18.2 = human Claudin18.2 (human); experiment: cell-based or functional assay
HER3 = HER3 (UniProt P21860 20-1342, limits assumed); experiment: cell-based or functional assay

B1: ADC-22 (antibody, human IgG1, kappa, V domains shown)
VH: EVQLVQSGAEVKKPGASVKVSCKASGYTFTSYWMHWVRQAPGQRLEWMGMIHPNSGSTNYNEKFKGRVTITRDTSASTAYMELSSLRSEDTAVYYCARLKTGNSFDYWGQGTTVTVSS
VL: DIVLTQSPDSLAVSLGERATINCKSSQSLLNSGNQKNYLTWYQQKPGQPPKLLIYWASTRESGVPDRFSGSGSGTDFTLTISSLQAEDVAVYYCQNAYTYPFTFGQGTKLEIKR
modifications: Asn at position 297 (Eu numbering) carries the remodeled N297 glycan chain from OLS-4, conjugated to the PBD drug linker LD-11; average drug loading y=1.96
**Q.** Which “EC50 (nM), in vitro killing (CTG cell viability) of cells highly expressing NUGC4-claudin18.2” value (human Claudin18.2) does the source give for B1 here?
**A.** 2.1 nM

**Q.** What about the “EC50 (nM), in vitro killing (CTG cell viability) of cells lowly expressing NUGC4-claudin18.2” value (human Claudin18.2) of the same binder?
**A.** 11.7 nM

**Q.** And the “EC50 (nM), in vitro killing (CTG cell viability) of cells moderately expressing NUGC4-claudin18.2” value (human Claudin18.2)?
**A.** 9.8 nM

B2: ADC-20 (antibody, human IgG1, kappa, V domains shown)
VH: QVQLVQSGGGLVQPGRSLRLSCAASGFTFDDYAMHWVRQAPGKGLEWVSGISWNSGSIGYADSVKGRFTISRDNAKNSLYLQMNSLRAEDTALYYCAKEGLPGLDYWGQGTLVTVSS
VL: DIQMTQSPSSLSASIGDRATITCRASQHVGTYLNWYQQKPGKTPKLLISGAANLQSGVPSRFSGSGSGTDFTLTISSLQPEDFATYYCQQSYNTPPFSFGQGTKVEIKR
modifications: Asn at position 297 (Eu numbering) carries the remodeled N297 glycan chain from OLS-4, conjugated to the PBD drug linker LD-11; average drug loading y=1.98
**Q.** Which results are given for B2?
**A.** EC50 (nM), killing effect (CTG) on FaDu++ (HER3): 39.9 nM; EC50 (nM), killing effect (CTG) on MCF7++++ (HER3): 114 nM; EC50 (nM), killing effect (CTG) on SW620+++ (HER3): 29.3 nM

From patent US20250000989A1 (JIANGSU HENGRUI PHARMACEUTICALS, published 2025)
